This note sets out measurements from IntAct's records for PubMed 24141193.

The labels stand for the following.
B1: Protein kinase doc (Escherichia phage P1), Q06259 (parent)
chain: MRHISPEELIALHDANISRYGGLPGMSDPGRAEAIIGRVQARVAYEEITDLFEVSATYLVATARGHIFNDANKRTALNSALLFLRRNGVQVFDSPELADLTVGAATGEISVSSVADTLRRLYGSAE

The variants in the test derive from B1. The note with it: with eftu1_ecoli tufA.
For the variant MRHISPEELIALHDANISRYGGLPGMSDPGRAEAIIGRVQARVAYEEITDLFEVSATYLVATAGGHIFNDANKRTALNSALLFLRRNGVQVFDSPELADLTVGAATGEISVSSVADTLRRLYGSAE [R64G], the “effect of a mutation on the interaction” value is reported as “disrupting interaction strength”.
